From patent US12180485B2, “Repressible control of gene expression” (TRUSTEES OF BOSTON UNIVERSITY, priority 2020, dated 2024)

B1: Split 263/264: RfxCas13d split at 263/264 (SEQ ID NOs: 14, 15) with GIB CID domains (protein)
chain 1: IEKKKSFAKGMGVKSTLVSGSKVYMTTFAEGSDARLEKIVEGDSIRSVNEGEAFSAEMADKNAGYKIGNAKFSHPKGYAVVANNPLYTGPVQQDMLGLKETLEKRYFGESADGNDNICIQVIHNILDIEKILAEYITNAAYAVNNISGLDKDIIGFGKFSTVYTYDEFKDPEHHRAAFNNNDKLINAIKAQYDEFDNFLDNPRLGYFGQAFFSKEGRNYIINYGNECYDILALLSGLRHWVVHNNEEESRISRTWLYNLDKNL
chain 2: DNEYISTLNYLYDRITNELTNSFSKNSAANVNYIAETLGINPAEFAEQYFRFSIMKEQKNLGFNITKLREVMLDRKDMSEIRKNHKVFDSIRTKVYTMMDFVIYRYYIEEDAKVAAANKSLPDNEKSLSEKDIFVINLRGSFNDDQKDALYYDEANRIWRKLENIMHNIKEFRGNKTREYKKKDAPRLPRILPAGRDVSAFSKLMYALTMFLDGKEINDLLTTLINKFDNIQSFLKVMPLIGVNAKFVEEYAFFKDSAKIADELRLIKSFARMGEPIADARRAMYIDAIRILGTNLSYDELKALADTFSLDENGNKLKKGKHGMRNFIINNVISNKRFHYLIRYGDPAHLHEIAKNEAVVKFVLGRIADIQKKQGQNGKNQIDRYYETCIGKDKGKSVSEKVDALTKIITGMNYDQFDKKRSVIEDTGRENAEREKFKKIISLYLTVIYHILKNIVNINARYVIGFHCVERDAQLYKEKGYDINLKKLEEKGFSSVTKLCAGIDETAPDKRKDVEKEMAERAKESIDSLESANPKLYANYIKYSDEKKAEEFTRQINREKAKTALNAYLRNTKWNVIIREDLLRIDNKTCTLFRNKAVHLEVARYVHAYINDIAEVNSYFQLYHYIMQRIIMNERYEKSSGKVSEYFDAVNDEKKYNDRLLKLLCVPFGYCIPRFKNLSIEALFDRNEAAKFDKEKKKVSGNS
modifications: GIB CID domains attached
B2: SEQ ID NO: 801: inducible system polypeptide, probably Table 20 (GID-GAI) (protein)
chain: MLDLASLILIEKKKSFAKGMGVKSTLVSGSKVYMTTFAEGSDARLEKIVEGDSIRSVNEGEAFSAEMADKNAGYKIGNAKFSHPKGYAVVANNPLYTGPVQQDMLGLKETLEKRYFGESADGNDNICIQVIHNILDIEKILAEYITNAAYAVNNISGLDKDIIGFGKFSTVYTYDEFKDPEHHRAAFNNNDKLINAIKAQYDEFDNFLDNPRLGYFGQAFFSKEGRNYIINYGNECYDILALLSGLRHWVVHNNEEESRISRTWLYNLDKNLDNEYISTLNYLYDRITNELTNSFSKNSAANVNYIAETLGINPAEFAEQYFRFSIMKEQKNLGFNITKLREVMLDRKDMSEIRKNHKVFDSIRTKVYTMMDFVIYRYYIEEDAKVAAANKSLPDNEKSLSEKDIFVINLRGSFNDDQKDALYYDEANRIWRKLENIMHNIKEFRGNKTREYKKKDAPRLPRILPAGRDVSAFSKLMYALTMFLDGKEINDLLTTLINKFDNIQSFLKVMPLIGVNAKFVEEYAFFKDSAKIADELRLIKSFARMGEPIADARRAMYIDAIRILGTNLSYDELKSGGSGSGSSGGSGTMAASDEVNLIESRTVVPLNTWVLISNFKVAYNILRRPDGTFNRHLAEYLDRKVTANANPVDGVFSFDVLIDRRINLLSRVYRPAYADQEQPPSILDLEKPVDGDIVPVILFFHGGSFAHSSANSAIYDTLCRRLVGLCKCVVVSVNYRRAPENPYPCAYDDGWIALNWVNSRSWLKSKKDSKVHIFLAGDSSGGNIAHNVALRAGESGIDVLGNILLNPMFGGNERTESEKSLDGKYFVTVRDRDWYWKAFLPEGEDREHPACNPFSPRGKSLEGVSFPKSLVVVAGLDLIRDWQLAYAEGLKKAGQEVKLMHLEKATVGFYLLPNNNHFHNVMDEISAFVNAECLDLASLIL
B3: SEQ ID NO: 804: inducible system polypeptide, probably Table 20 (GID-GAI) (protein)
chain: MAPKKKRKVGIHGVPAAKRDHHHHHHQDKKTMMMNEEDDGNGMDELLAVLGYKVRSSEMADVAQKLEQLEVMMSNVQEDDLSQLATETVHYNPAELYTWLDSMLTDLNSGGSGSGSSGGSGTDKGKSVSEKVDALTKIITGMNYDQFDKKRSVIEDTGRENAEREKFKKIISLYLTVIYHILKNIVNINARYVIGFHCVERDAQLYKEKGYDINLKKLEEKGFSSVTKLCAGIDETAPDKRKDVEKEMAERAKESIDSLESANPKLYANYIKYSDEKKAEEFTRQINREKAKTALNAYLRNTKWNVIIREDLLRIDNKTCTLFRNKAVHLEVARYVHAYINDIAEVNSYFQLYHYIMQRIIMNERYEKSSGKVSEYFDAVNDEKKYNDRLLKLLCVPFGYCIPRFKNLSIEALFDRNEAAKFDKEKKKVSGNSGSGPKKKRKV
B4: SEQ ID NO: 805: inducible system polypeptide, probably Table 20 (GID-GAI) (protein)
chain: MLDLASLILIEKKKSFAKGMGVKSTLVSGSKVYMTTFAEGSDARLEKIVEGDSIRSVNEGEAFSAEMADKNAGYKIGNAKFSHPKGYAVVANNPLYTGPVQQDMLGLKETLEKRYFGESADGNDNICIQVIHNILDIEKILAEYITNAAYAVNNISGLDKDIIGFGKFSTVYTYDEFKDPEHHRAAFNNNDKLINAIKAQYDEFDNFLDNPRLGYFGQAFFSKEGRNYIINYGNECYDILALLSGLRHWVVHNNEEESRISRTWLYNLDKNLDNEYISTLNYLYDRITNELTNSFSKNSAANVNYIAETLGINPAEFAEQYFRFSIMKEQKNLGFNITKLREVMLDRKDMSEIRKNHKVFDSIRTKVYTMMDFVIYRYYIEEDAKVAAANKSLPDNEKSLSEKDIFVINLRGSFNDDQKDALYYDEANRIWRKLENIMHNIKEFRGNKTREYKKKDAPRLPRILPAGRDVSAFSKLMYALTMFLDGKEINDLLTTLINKFDNIQSFLKVMPLIGVNAKFVEEYAFFKDSAKIADELRLIKSFARMGEPIADARRAMYIDAIRILGTNLSYDELKALADTFSLDENGNKLKKGKHGMRNFIINNVISNKRFHYLIRYGDPAHLHEIAKNEAVVKFVLGRIADIQKKQGQNGKNQIDRYYETCIGKSGGSGSGSSGGSGTMAASDEVNLIESRTVVPLNTWVLISNFKVAYNILRRPDGTFNRHLAEYLDRKVTANANPVDGVFSFDVLIDRRINLLSRVYRPAYADQEQPPSILDLEKPVDGDIVPVILFFHGGSFAHSSANSAIYDTLCRRLVGLCKCVVVSVNYRRAPENPYPCAYDDGWIALNWVNSRSWLKSKKDSKVHIFLAGDSSGGNIAHNVALRAGESGIDVLGNILLNPMFGGNERTESEKSLDGKYFVTVRDRDWYWKAFLPEGEDREHPACNPFSPRGKSLEGVSFPKSLVVVAGLDLIRDWQLAYAEGLKKAGQEVKLMHLEKATVGFYLLPNNNHFHNVMDEISAFVNAECLDLASLIL
B5: SEQ ID NO: 809: inducible system polypeptide, probably Table 20 (GID-GAI) (protein)
chain: MAASDEVNLIESRTVVPLNTWVLISNFKVAYNILRRPDGTFNRHLAEYLDRKVTANANPVDGVFSFDVLIDRRINLLSRVYRPAYADQEQPPSILDLEKPVDGDIVPVILFFHGGSFAHSSANSAIYDTLCRRLVGLCKCVVVSVNYRRAPENPYPCAYDDGWIALNWVNSRSWLKSKKDSKVHIFLAGDSSGGNIAHNVALRAGESGIDVLGNILLNPMFGGNERTESEKSLDGKYFVTVRDRDWYWKAFLPEGEDREHPACNPFSPRGKSLEGVSFPKSLVVVAGLDLIRDWQLAYAEGLKKAGQEVKLMHLEKATVGFYLLPNNNHFHNVMDEISAFVNAECSGGSGSGSSGGSGTSYDELKALADTFSLDENGNKLKKGKHGMRNFIINNVISNKRFHYLIRYGDPAHLHEIAKNEAVVKFVLGRIADIQKKQGQNGKNQIDRYYETCIGKDKGKSVSEKVDALTKIITGMNYDQFDKKRSVIEDTGRENAEREKFKKIISLYLTVIYHILKNIVNINARYVIGFHCVERDAQLYKEKGYDINLKKLEEKGFSSVTKLCAGIDETAPDKRKDVEKEMAERAKESIDSLESANPKLYANYIKYSDEKKAEEFTRQINREKAKTALNAYLRNTKWNVIIREDLLRIDNKTCTLFRNKAVHLEVARYVHAYINDIAEVNSYFQLYHYIMQRIIMNERYEKSSGKVSEYFDAVNDEKKYNDRLLKLLCVPFGYCIPRFKNLSIEALFDRNEAAKFDKEKKKVSGNSGSGPKKKRKVPKKKRKV

Test system: mCherry expression in HEK293 FT cells
Test: Inducible split RfxCas13d (GIB, RAP, ABA, Dano, GRZ CID domains; NES/NLS variants) mCherry knockdown, leakiness and inducibility
Assay type: cell-based
Details: for performance in the tested conditions: inducible polypeptide systems of Tables 18-22
Description: FIG. 6A-6C is a series of schematics and graphs showing that split RfxCas13d's reconstituted and functioned to knockdown mCherry expression in HEK293 FT cells FIG. 6A is a schematic showing split sites selected throughout RfxCas13d sequence. FIG. 6B is a bar graph showing mCherry expression under 4 conditions for gibberellin-inducible, rapalog-inducible, and abscisic acid-inducible inducible split Cas13d designs. In FIG. 6B and FIG. 6C, the left-right order of the bars for each split site is the same as the left-right order of the legend for each bar graph.
FIG. 7A-7E is a series of schematics and graphs showing a functional and inducible split Cas13d design. FIG. 7A is a bar graph showing additional split sites selected in RfxCas13d and tested with GIB CID domains. […] In FIG. 7A and FIG. 7C, the left-right order of the bars for each split site is the same as the left-right order of the legend. FIG. 7B is a schematic showing the design to compartmentalize splits. Compartmentalizing moieties facilitates the reduction of leakiness. […] FIG. 7D is a schematic showing the experiment flow for testing reversibility of the inducible split Cas13d's.
FIG. 8A-8B is a series of schematics and graphs showing that split RfxCas13d's reconstituted upon drug-induced dimerization and knocked down mCherry expression in HEK293 FT cells. FIG. 8A is a bar graph showing quantification of system performance. The left-right order of the bars for each split site is the same as the top-down order of the legend. […] System performance in leakiness score (left axis) and induced activity (right axis) by GIB, RAP, ABA, and Dano-inducible split Cas13d designs.
FIG. 10A-10B is a series of schematics and graphs showing performance optimization through separating split Cas13d moieties in different cellular compartments. […] The left-right order of the bars for each bar graph is the same as the top-down order of the legend.
FIG. 11 is a series of schematics and graphs showing the testing of reversed orientation (dark grey dots) of CID domains with respect to split Cas13d pieces against original orientations (light grey dots) designed for GIB, ABA, Dano, and GRZ inducible systems.

[1] = RfxCas13d split with GIB CID domains

Molecule | knockdown efficiency [1] | leaky off state activity [1] | performance in the tested conditions
B1 | over 60% | minimum leaky off state activity | –
B2 | – | – | highest performance
B3 | – | – | highest performance
B4 | – | – | highest performance
B5 | – | – | highest performance
